This data set deals with T1, CC(C)CCC[C@@H](C)[C@H]1CC[C@H]2[C@@H]3CC=C4C[C@@H](O)CC[C@]4(C)[C@H]3CC[C@]12C.
T1 construct: Met-Ala (from the NcoI cloning site) in front of Arg25 (N); made in house; host or cells: E. coli TOPP3 carrying pJL/H7α1.5 (ATCC 69401)
Briefly: Reconstitution assay of cholesterol 7α-hydroxylase activity at different concentrations of cholesterol (Lineweaver-Burke plot). The settings on record: other: purified truncated enzyme reconstituted with NADPH-cytochrome P450 reductase and phospholipid, 1 mM NADPH, 37° C., 20 minutes, pH 7.4. Format: biochemical, human. The method, then: FIG. 10 illustrates a Lineweaver-Burke plot of activities of truncated human and truncated rat cholesterol 7α-hydroxylase in E. coli. Truncated CYP7 activity was measured using a reconstitution assay, such as that described in Example 10, at different concentrations of cholesterol, as indicated. Linear regression was used to draw the line.
The truncated enzyme was purified from recombinant bacteria. Purification methodology is described by Li and Chiang, J. Biol. Chem. 266 (29): 19186 (1991), the contents of which are expressly incorporated by reference herein in its entirety. The activity of CYP7, in both the presence and absence of the compound, is measured as described by Chiang, Meth. Enzym. 206: 483 (1991), the contents of which is expressly incorporated by reference herein in its entirety. […]
The Km and Vmax for cholesterol have been determined in comparison with the truncated, bacterially expressed rat CYP7 enzyme (FIG. 10). […]

A word on the Km: it is the concentration of substrate that gives half-maximal velocity. As a reminder, the Vmax is the rate approached at saturating substrate. “truncated human cholesterol 7α-hydroxylase (CYP7), amino acids 1 to 24 of the membrane anchor region deleted, SEQ ID NO:5, expressed in E. coli TOPP3-pJL/H7α1.5 (Homo sapiens)”: the Km was found to be 5.85 µM and the Vmax came out at 0.13 nmol/min.
